Source: paper PMC4046702 (Journal of inorganic biochemistry, 2013)

Target: HIF prolyl-4-hydroxylase 2 (PHD2), residues 178-426 (human, UniProt Q9GZT9 178-426)
Assay: cell-based or functional assay

Chain of HIF prolyl-4-hydroxylase 2 (PHD2), residues 178-426 (Q9GZT9 178-426): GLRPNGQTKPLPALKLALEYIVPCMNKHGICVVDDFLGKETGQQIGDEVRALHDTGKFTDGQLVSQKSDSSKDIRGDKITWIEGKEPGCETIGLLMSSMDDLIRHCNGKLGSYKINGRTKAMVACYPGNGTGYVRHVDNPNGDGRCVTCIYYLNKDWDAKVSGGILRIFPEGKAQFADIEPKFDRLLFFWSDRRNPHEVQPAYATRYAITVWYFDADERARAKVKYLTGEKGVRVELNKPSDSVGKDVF

Row | Binder | kcat/KM of CODD hydroxylation by PHD2 (steady-state, MALDI-TOF), 0 mM NaCl [M⁻¹ s⁻¹] | kcat/KM of CODD hydroxylation by PHD2 (steady-state, MALDI-TOF), + 100 mM NaCl [M⁻¹ s⁻¹] | kcat/KM of NODD hydroxylation by PHD2 (steady-state, MALDI-TOF), 0 NaCl [M⁻¹ s⁻¹] | kcat/KM of NODD hydroxylation by PHD2 (steady-state, MALDI-TOF), + 100 mM NaCl [M⁻¹ s⁻¹]
1 | DLDLEALAPYIPADDDFQL [CODD peptide, HIF-1α 556-574 (M561A, M568A)] | 16700 | 5000 | – | –
2 | DALTLLAPAAGDTIISLDYG [NODD peptide, HIF-1α 395-414 (F413Y)] | – | – | 667 | 833
